A short description of this data set: label from the status in PepcDB records.
Consider “MFPLNFHYEDVSRQDPLLKPNHANVMEVPGSCEIRVVPKAPYNFIIKNGKLAMEIPRGQKFIQTQRGSTGKSFRSNPFLGSNKDKGYVSDLARQSTLRGHGMSNFSVRISTVMSLLDFPVEIRKNSIQFSMETEFCEFSPELEDHFEIFEHIRGFNVTIITSANTQDETLPLWSGFLQKDEGETQ”, for which the protein production entry was “failed”.
With “MPPQPDAAPPPLPPELAPLLPTDPVTIGPFRVIGRLGSGGMGAVYGALDAEHRCVAVKVIHAEHVRRPEYRELFAREAELVSRIDAECTPRFLGADPNAPEPWLATEFVPGRTLQQHVREFGPLDEAALRAFAAGTAEALAAIHAAGVVHLDVKPGNIMLAPDGPKVLDFGIARAIGDTTDKNVYGTPGWAAPERLDRQPGTPAADMFAWGGLIVFAATGRSPFGTGTSAELLERVRAGDCDLTGVPEELMELVARALSTDPEARPTAVEAFHTVLALDTVAADAIEEPGEDAAAIHRKRLRALLHRVWTGFDAAGHRPELWMALGTAAGGVGVAAGGAAALATQGTAGGGAAAGSGKLVGTASAAGGGASWGAGAGTLTKSATVTAAGTGLSGKAMLTVAAGATAAAVAGGWLVGRAVTDQPLLPFTDPEPSATAALAPSPEEDEKEGQEVRFRNLTLWFPEDWTVHVIEDIEFVGFGPDHEGREIVDDWIAAHPPGNPGCAEVDWNHWEWPAALVECPHIRILGPGGITYGGAVYEPITEEPDAGLFAPSQNPLPCIPGIDAYEADPASFPGQSPLVEELAPVGDRSALYREYLTPCGNPDGRDPELLYYTQRSWFLPESQILIVDEYGIEDIDAILADGEFASRSEED”, the protein production result is listed as “failed”.
As for “MTSTPPTPGPKLLEERSLGGILIHFLAIPTGVVGAGLLYLLATDEFTKRNARNALDWHLTVLLITAVTFGSVFTYAELTGQGVTDVSIFPSSVSTVAGIVTSALLMLWFAVTAWTFAVGLIAMVKAIFGTAWRYPFSLALVERFGSHINLSDRWPLVILGYIVLSPLLIWAVFFVPANDAIVILSAFGLLGLILGLTPLTGIAMYRHGKEHWLQDADQQSHVFAHVGLPILVAAIGYVVSWSFTQSVSPQGDAMYVFLAAFWISSIVYLIRWWTTSSE”, the entry is “failed”; as for “MLNIEIYEEAMCCSTGVCGPEPDETLIKTNQINEYLKQNQIEVQRYNMNNNPNEFIQNKEVIRLIQEKGDEVLPITFIEGNIAKTGAYITQEEADEIITVNQMRNGGCCGGDGCC”, “not failed”.
Consider “MVKKIVNPINIIVVVMHISVSIYALFVNVPFKAELFKDNVVLCIYVITFYIGFLLLGDFFRERKIFRKRNDGNRESKTISIIGGIFLFAGILLGMSSVMTIYNIKVDASEYSIGRIIFDTIKVDNVKRESTTSKPQGIFVQRSITTIRTEEVDGISVKSNKRVEFKHCYLYGWQVIEGKIYNVKYLPTTHRILSIEEKK”, for which the protein production entry is reported as “failed”.
In the case of “MSLNGSRRIPQPIRWAMVGGGSQSQIGYIHRCAALRDNTFVLVAGAFDIDPIRGSAFGEQLGVDSERCYADYLSMFEQEARRADGIQAVSIATPNGTHYSITKAALEAGLHVVCEKPLCFTVEQAENLRELSHKHNRIVGVTYGYAGHQLIEQAREMIAAGELGDVRMVHMQFAHGFHSAPVEAQSQATQWRVDPRQAGPSYVLGDVGTHPLYLSEVMLPDLKIKRLMCSRQSFVASRAPLEDNAYTLMEYEGGAMGMVWSSAVNAGSMHGQKIRVIGSRASLEWWDERPNQLSFEVQGQPAQILERGMGYLHPNALIDDRIGGGHPEGLFEAWANLYYRFALAMDATDRSDTQALSAVRYPGIDAGVEGVRWVERCVLSADNDSIWVAYEGHHHHHH”, the protein production entry was “not failed”.
Take “MGHHHHHHSHVRSPQNQYPAELMRRFELYFQGPSSNKPRVIREVRADSVGKLVTVRGIVTRVSEVKPKMVVATYTCDQCGAETYQPIQSPTFMPLIMCPSQECQTNRSGGRLYLQTRGSRFIKFQEMKMQEHSDQVPVGNIPRSITVLVEGENTRIAQPGDHVSVTGIFLPILRTGFRQVVQGLLSETYLEAHRIVK”: the protein production result is listed as “failed”.
Next, “MILPTKAMATQELTVKRKLSGNTLQVQASSPVALGVRIPTVALHMMELFDTTVEQLYSIFTVKELTNKKIIMKWRCGNWPEEHYAMVALNFVPTLGQTELQLKEFLSICKEENMKFCWQKQHFEEIKGSLQLTPLNG”: “failed”.
As for “MRTISFFNNKGGVGKTTLSTNVAHYFALQGKRVLYVDCDPQCNATQLMLTEEQTESIYLDGLNDEVAERNSLAKTVYAIFVPLREGESQIAAEITPMRSERFGVDVLPGHPALSQIEDLMSDSWQSALGRQTGPFRRIHWAGQLAHAMERDDRYDVIFFDVGPSLGPFNRTVLLGCDAFVTPTATDLFSFHAFGNLARWFDAWVTQ”, the entry is “failed”; as for “MMRRQASVLLLVSMVSATVLPVFARAPGEREPSCAATSIVLPAGARYPNGIAHAADGTLYVGLVTSGRILRKPPGGEWETFFAGSPAIFAATALRLDEPRGLLWGNSPDFLPAGRRRPHGVFALDLASGAVRRYLTLPGDGMGNDLAVAPDGTVYLSETRDGSLMRLRPGEPAFQVLLRDSRLAGPGGLGAAGIVRVDDDTLLVGNFGSGAIHVVEGVATRPRLREMELPRTLENPDGMALAPDGSLIVLENAIRSGAGKVLRIAEPLAPGRRGIEVIREGLESPVNLTVTGQGCAYVSESRIRHRLLPGREGEVPARFLIHRLPLDAAGGR”, “failed”.
In the case of “MLQHRCPVRRILVHYIAHWSRLRSILPTFAAIVRRPFRVCKTMNQPSSKPTPAVTFRLSKAELVLVFITMLWGGTFLLVHNVMTVSGPMFFVGLRFAAAALFVGVVSARALPGLTFTELKAGMLIGVSIMLGYGLQTMGLQTISSSQSAFITALYVPFVPLLQWLVLGRRPGLMPSMGICLAFIGLMLLAGPEGGSLRFSEGELVTLISAVAIAGEIILISRYAGQVDVRRVTVVQLATASLLAFLMIVPTQERIPDFSWLLLASAVGLGAMSAVIQVAMNWAQKSVSPTRATLIYAGEPVWAGIVGRLAGERLPGVALLGGLLIVVAVVVSELKVRRPRETVETRDVQNPGERQAGL”, the protein production result is “failed”.
With “MVNPTISDDLFAMIAKKVADKSWLDLKPLIRSGTRGRDIVYRPDVLKDANIYSLCRVPDDFQVGGGHNPTGPQGEGRNRPFFKRCLLANNPTAVYNEAIRVLIHETDINGALKLMQRHAPVRADATIVCAIIFICAGYEWN”, the protein production result is recorded as “not failed”.
Next, “AISPNRASHTLADIRNQLSTRILILDGAMGTMIQGYKLEEADYRGERFKDWHTDVKGNNDLLVLTQPHIIKQIHTDYLLAGADIIETNTFNATTIAMADYDMQSLSAEINREGARLAREACDAIEQATGKPRYVAGVLGPTNRTCSISPDVNDPGFRNIHFDELVTAYCESTRALIEGGADIIMVETIFDTLNAKAALFAIETVFDELFGANSPARLPVMISGTITDASGRTLTGQTTEAFYNSLRHIKPLSIGLNCALGPKELRPYVEELSRIAECYVSAHPNAGLPNEFGGYDETPEDMAKVIQEWAREGMLNIIGGCCGSTPEHIKVIREAVEQFAPRVLPEIPVACRLAGLEPLTIDAQTLFVNVGERTNVTGSAKF”: “failed”; “MASSSSSSEHKVFLSFRREDTGRTFVSHLYRSLDQKEIRTYKFENQQAGDGKRISSEVKQAINESRIAVVVISENYVSSVLCLDVLAKIIERLPLIKIETVFYEVDPGDLTRPTGKFADDFRRHEARENRRTVNRWRDALDQLVSITNSNFCSRNWEDDSKMIDDLIIRLINIYFSKYYTPDVDIIAETTVGLDASVLGLMTDIDMKYKLNSLSGSVESGFGLERYALEATSVMDDMSNESPSPTSDDSNGLVGMYRHKKAVYGLLDLESKNQVRTIGIWGFQGVGKTTLAECVFDDISSHFQHYCFLTNANKIYQNRISPSLLKHLTRRRSSEDIFDAIKPSLVNRKVLFVVDGVDATYNEQFNDAMKVTRWLGPGSRIIMTSRFKSSLKFGGAKYEMECLRYEEALQLFSLYAFKKTYPLIGFELFSIRAVHFAGRLPLSLKVLGSFLYDKDEESWKRTLHKLEASQDNDRRYVSNYIGAGEYLPRRQIELEQYVSPDEEEYSPSYIMSL”: “failed”; “MMTPSRAEKSLTIVIPALNEQDKIADTIDGVLPLARELLDDFEIFLIDDGSTDATGAIMNEFAASDRRITVHHNAERRGVGAGFEYALSRAKFDAITLIPGDHAFQNEGIARMFKAVGAADMVITYRDNQSDRSVNRSIQSHSLRFVLNCMFGFWLSDYHSMIVYPVKWLRQIAVRADGYGYQICALISLLQLGLTYVQVPVSLNAELKGSSRALRLRTYLELIGTIVSLLRRVPIRDVDRDQVPVDAGRTPAR”: “failed”.
As to “MFPILLLAFIFVPIIEIGLFIQVGGFLGLWPTIALVLITAFVGASLVRSQGIQTLMSVQGRLEQGEIPAQQIFEGVMLAVAGVLLLTPGFMTDALGMVVLLPAPRAAIAKYLMSKMVVKTMHGGGFQGGFSNQGPFEQDPFHRDPFDSRSDNGNTFEGEYERKDDDDRNKLN”, the protein production result is reported as “failed”.
As for “MNLQHITILTLFIEGLLSFFSPCVLPILPVYIGILAGQGEEKQSGEIIWDRRKVFTNTFLFISGIAATFFILAFASSLISQFLQSHIQFLQNLGGILILIMGLVQVGLIKSHFFNREYSAKNKVYQAGQKVTPLIAFLMGFTFSFSWTPCIGPILASVFLYASTHQGIYSVLLILIYCLGFVIPFALIALFSQRVMSVFKKQKRFLKYTKLFSGILLILIGISILTGSFAKIAHLFN”, the entry is “failed”; as for “MPAPAATYERVVYKNPSEYHYMKVCLEFQDCGVGLNAAQFKQLLISAVKDLFGEVDAALPLDILTYEEKTLSAILRICSSGLVKLWSSLTLLGSYKGKKCAFRVIQVSPFLLALSGNSRELVLD”, “not failed”; as for “AEPVLGDDGLYQLDWYLQSFLDLKEDLEGATAKGKRFAILWGLKGCPYCKKLHDVHMRDPAIESYIRDNFEIVHLNHIGAREVTDFDGSKLSEKAFAQAYGIRFTPSLQFFPESADGLAAKKPQDREVARMPGLLEPPEFLAMFKYVREKGYQSM”, “failed”.
As for “MKLKHKRDDKMRFDIKKVLELAEKDFETAWRETRALIKDKHIDNKYPRLKPVYGKPHPVMETIERLRQAYLRMGFEEMINPVIVDEMEIYKQFGPEAMAVLDRCFYLAGLPRPDVGLGNEKVEIIKNLGIDIDEEKKERLREVLHLYKKGAIDGDDLVFEIAKALNVSNEMGLKVLETAFPEFKDLKPESTTLTLRSHMTSGWFITLSSLIKKRKLPLKLFSIDRCFRREQREDRSHLMSYHSASCVVVGEDVSVDDGKVVAEGLLAQFGFTKFKFKPDEKKSKYYTPETQTEVYAYHPKLGEWIEVATFGVYSPIALAKYNIDVPVMNLGLGVERLAMIIYGYEDVRAMVYPQFYEYRLSDRDIAGMIRVDKVPILDEFYNFANELIDICIANKDKESPCSVEVKREFNFNGERRVIKVEIFENEPNKKLLGPSVLNEVYVYDGNIYGIPPTFEGVKEQYIPILKKAKEEGVSTNIRYIDGIIYKLVAKIEEALVSNVDEFKFRVPIVRSLSDINLKIDELALKQIMGENKVIDVRGPVFLNAKVEIK”, the protein production result is “not failed”.
In the case of “MTIVWRDCFCVRSHSSNGLFMDVENNTAFWITGYQEARLGPVPEPTFPASETPYVIVRSRYSGISRGTESLVYNNQVPENEYQRMRAPFQEGEFPFPVKYGYASVGEVVDGPEALLGRNVFCLYPHQQRYAVPASAVLPLPAKVPAERAVLAANMETAVNGVWDGQPAVGDRIAVIGLGVVGLLVAWLVNRIPGVELIGVDTNEGRRSVAQALGVRFTTEPDIQNCDLVFHASGHPSGLAKALSLAGTDARVIELSWYGDTPVSVPLGHAFHPNRLTLKSSQVGQLSPERRPRWHHRRRLELALSMLSEPALDALISGESRFEQLPQVAGNILMPGADALCHRIVY”, the protein production result was “failed”.

(Values after a protein production outcome set (Wang et al. 2014).)
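Further: failed if final PepcDB status was selected cloned or expressed and not failed if soluble or beyond.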
